Earlier results, collected in paper PMC3742252.

Biological target: TSH (Bos taurus) (UniProt P01217)

Kd: 1 nM
Substance: thyroid-stimulating hormone receptor (from UniProt Q8SPP9)
